Consider 84 variants from the RNAGym collection of RNA variant scans (doi:10.1021/acssynbio.7b00057).

B1: Pistol ribozyme (parent)
chain: GGGUCGUUGUUCCAUAAUCGCGUGGAUAUGGCACGCAAGUUUCUACCGGGCACCGUAAAUGUCCGACUGGAGCCGUUCGGGCGGCUAUAAACAGACCUCAGGCCCGAAGCGUGGCGGCACCUGCCGCCGGUGGUAAAAAAGAUCGGAAGAGCACACGUCU

Variants of B1 are the subject of this series. As to the kind of experiment: aptazyme ON/OFF ratio, guanine; higher = stronger switching; co-transcriptional cleavage with and without guanine.
Regarding U7C U8C C12A C13U, the “aptazyme ON/OFF ratio” value was found to be 1.34.

Regarding U7A U8C G9U C13G, the “aptazyme ON/OFF ratio” value turned out to be 1.03. As for G9A U10C U11G C12U C13A, the “aptazyme ON/OFF ratio” value worked out at 1.37.

As to U7C U8A G9C U11A C12G C13G, the “aptazyme ON/OFF ratio” value was determined as 1.17. The figure for U7A U8G U10A U11C C12U C13U is 1.33; for U7C U8A G9A U10C U11C C12U C13A it is 1.03. The value for U7G U8C U10G U11G C12A C13G was 1.1; that for U7G G9U U10C U11C C12A C13U was 1.47; that for U7A U8G G9C U10G U11C C12A C13G was 1.22.

On to U7A U8C U10G U11A C12G C13A, for which the “aptazyme ON/OFF ratio” value amounted to 1.18.

For U7A U8C G9A U10A U11G C12G, the “aptazyme ON/OFF ratio” value came out at 1.16.

With U7G U8C G9U U10C C12U, the “aptazyme ON/OFF ratio” value was determined as 1.12.

Take U7A U8G U10A C13U: the “aptazyme ON/OFF ratio” value amounted to 1.12. The figure for U7G U8G G9A U10C U11C C13U is 1.01; for U7G U8C G9U U10C U11C C12U it is 1.29. Regarding U8A G9A U11G, the “aptazyme ON/OFF ratio” value was 1.44. The figure for U7C U8G G9U U10A U11A C12G C13A is 1.18. The figure for U7C U8C G9A U11G C12A is 1.37; for U7C G9U U10G C13A it is 1.25; for U7C G9C U10C U11C C13G it is 1.04. As for U7C U8C G9A U10A U11G C13G, the “aptazyme ON/OFF ratio” value was 1.19.

For U7A G9A U10C C12A C13U, the “aptazyme ON/OFF ratio” value turned out to be 1.21. Take U7G G9U U10C U11G C12A: the “aptazyme ON/OFF ratio” value amounted to 1.13. U7G U8C U10G U11A C12A C13U: the “aptazyme ON/OFF ratio” value is 1.12.

For the variant U7C G9A U10A C12G C13A, the “aptazyme ON/OFF ratio” value turned out to be 1.35. The figure for U7G G9A U10G U11C C12G C13G is 1.08; for U7A U8A U10G C13U it is 1.22.

Consider U8G G9U U10G U11A C13U, for which the “aptazyme ON/OFF ratio” value turned out to be 1.03. The figure for U7C G9A U10C U11A is 2.6; for U7A U8C U10G U11A C13G it is 1.2; for U8A G9C C12A it is 1.37. Consider U7G G9A U10A C12U, for which the “aptazyme ON/OFF ratio” value was determined as 1.31. The value for U7C G9A U10C U11C C12A C13U was 1.16; that for U7G U8A G9A U10G U11A C12G was 1.11.

Regarding U7A U8C G9A U10A U11C C12A C13U, the “aptazyme ON/OFF ratio” value was 1.25. The figure for U7C U8G G9C U10C U11C C12U C13U is 1.03; for U8G G9U U11C C13U it is 1.08; for U7A U8C G9C U10G U11G C12A C13U it is 1.08. The figure for U7C U8C G9A U10A C12A C13U is 1.21; for U7A G9U U11A C12G it is 1.35. Consider U7C U8C G9C U10A U11G C12G C13G, for which the “aptazyme ON/OFF ratio” value amounted to 1.12. Consider G9A U11G C12U C13U, for which the “aptazyme ON/OFF ratio” value is 1.21.

As for U8A G9A U10C U11C C13A, the “aptazyme ON/OFF ratio” value was found to be 1.03. The value for U7G U10C U11G C12G was 1.15; that for U7C U8A U10C U11G C12A C13U was 1.14; that for U8G G9C U10C U11A C12G C13A was 1.02. The value for U7G U8A G9C U10G U11C C12A C13U was 1.05; that for U8A G9C U10G U11G C12A C13U was 1.21. The figure for U8A G9A U10G C12A is 1.2. Take U8C G9U U10G U11A C12U C13A: the “aptazyme ON/OFF ratio” value is 1.24. The figure for U7A U8C G9U U11C C12U C13G is 1.04. The value for U7C G9U U11G C13G was 1.03.

Regarding U8G U10G U11A C12A C13G, the “aptazyme ON/OFF ratio” value came to 1.14. The figure for G9U U11C C12G C13U is 1.68; for U7A U8A U10C U11G C12A C13G it is 1.16; for U7A G9C U10A U11G C12U it is 1.07. The value for U7C U8A G9C U10G U11A C12G C13G was 1.19; that for U7C U8G G9C U10C U11G C12A C13A was 1.12; that for U7A U8A G9C U10A U11G C13G was 1.11. Consider U7A G9U U10A U11G C12U C13A, for which the “aptazyme ON/OFF ratio” value was found to be 1.16.

In the case of U7C U8A G9A U10C U11G C12A C13G, the “aptazyme ON/OFF ratio” value stood at 1.16. The value for U8A G9U U10A U11A was 1.67. The value for U7G U10C U11C C12U C13A was 1.06; that for U8C G9C U10A C13A was 1.08.

Consider U7G U8A G9A U11A C12U C13A, for which the “aptazyme ON/OFF ratio” value came out at 1.17. The figure for U8C G9A U11G C12U C13U is 1.22; for G9C U10A U11A C12U it is 1.66; for U7A U8A C12G it is 1.41. Consider U7C U8G G9A C12G C13G, for which the “aptazyme ON/OFF ratio” value is 1.12.

On to U7C U8G G9C U10G C12G C13A, for which the “aptazyme ON/OFF ratio” value is 1.18. The value for U7C U8G G9U U10G U11G C12A C13U was 1.19; that for U7G U8G G9C U11G C12A was 1.73. The value for U7C G9C U10C U11G C13U was 1.19. The value for U7G G9A U10A C12U C13A was 1.14; that for U7G U8C G9C U10A U11A C13G was 1.1. Consider U7G U8C G9C U10A U11C C12G C13A, for which the “aptazyme ON/OFF ratio” value came to 1.33. The value for U7A U8A G9A U10G U11A C12A C13G was 1.18. As to G9U U10A U11C C12A C13U, the “aptazyme ON/OFF ratio” value stood at 1.41. The value for U7C G9U C12A C13A was 1.18; that for G9U U11A C12U was 1.47; that for U7C U8C U11A C12G C13G was 1.12. Regarding U7G U8A U11A, the “aptazyme ON/OFF ratio” value was found to be 2.25. U7G U8C G9U U10G C12U: the “aptazyme ON/OFF ratio” value worked out at 1.25. The value for U8A G9C U11A C12U was 1.22.
